In test [1] the target is human PDL1-Fc (human). Put plainly: BLI.
The target in test [2] is human PDL1-Fc (human). The experiment in a line: ELISA. In general terms: In an ELISA, binding on a coated surface is turned into a signal by an enzyme label.
A further test deals with human PDL1-His (human). The experiment in a line: SPR 25C.

By Kd is commonly meant the equilibrium constant for the complex coming apart. Lower therefore signals higher affinity. The EC50 is the concentration giving half of the maximal effect. A high value points to a less potent agent.

human PDL1-Fc (human), sequence (chain, as listed by the source): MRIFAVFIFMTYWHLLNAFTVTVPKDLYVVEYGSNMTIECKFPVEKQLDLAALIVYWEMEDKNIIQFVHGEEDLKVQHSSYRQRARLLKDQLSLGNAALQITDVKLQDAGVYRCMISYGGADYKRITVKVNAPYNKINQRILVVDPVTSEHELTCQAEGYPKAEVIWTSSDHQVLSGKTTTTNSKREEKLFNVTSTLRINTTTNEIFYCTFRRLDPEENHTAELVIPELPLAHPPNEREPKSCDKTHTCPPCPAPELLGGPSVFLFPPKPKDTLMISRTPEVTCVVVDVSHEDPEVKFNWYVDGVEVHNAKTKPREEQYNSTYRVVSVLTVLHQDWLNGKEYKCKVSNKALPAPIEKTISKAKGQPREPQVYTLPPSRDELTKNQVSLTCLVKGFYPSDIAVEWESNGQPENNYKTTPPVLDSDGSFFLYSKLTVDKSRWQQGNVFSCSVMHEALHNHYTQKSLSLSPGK
human PDL1-His (human), sequence (chain, as listed by the source): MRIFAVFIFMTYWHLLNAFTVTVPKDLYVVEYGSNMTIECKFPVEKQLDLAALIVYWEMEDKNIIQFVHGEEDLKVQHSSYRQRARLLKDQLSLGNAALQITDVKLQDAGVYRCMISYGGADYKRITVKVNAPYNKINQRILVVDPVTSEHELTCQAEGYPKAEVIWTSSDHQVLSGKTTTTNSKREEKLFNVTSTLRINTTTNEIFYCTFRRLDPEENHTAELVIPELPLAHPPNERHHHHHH

B1: PDL1-1v5 (antibody, V domains shown)
VH: EVQLLESGGGLVQPGGSLRLSCAASGFTVSNSAVSWARQAPGKGLEWVSLIDSNRNTVYAQSVRGRFTISRDNVKNTVYLQMNSLRAEDTAVYYCAKGWGSTLWGQGTTVTVSS
B1 displayed a Kd with human PDL1-Fc [1] of 12.2 nM. This molecule gave an EC50 with human PDL1-Fc [2] of 0.0478 µg/mL.

B2: PDL1-1v6 (antibody, V domains shown)
VH: EVQLLESGGGLVQPGGSLRLSCAASGFTVSNSAVSWARQAPGKGLEWVSLIDSNRNTVYAQSVRGRFTISRDNSKNTVYLQMNSLKAEDTAVYYCAKGIWGSTLWGQGTTVTVSS
For the molecule B2, in the test with human PDL1-Fc [1], the Kd was found to be 22 nM.

B3: NbPDL1-14-Fc (antibody, V domains shown)
VH: QVQLQESGGGLVQPGGSLRLSCAASGIISDINMVAWYRQAPGKQRELVAKIFRGGSTYYTDFVKGRFTISRENAKNTVYLQMNSLKPDDTAVYYCNARIQIRADRDYSDYWGQGTQVTVSS
Regarding B3, the binding result with human PDL1-His is “no binding”.

B4: PDL1-14 (antibody, V domains shown)
VH: QVQLQESGGGLVQPGGSLRLSCAASGIISDINMVAWYRQAPGKQRELVAKIFRGGSTYYTDFVKGRFTISRENAKNTVYLQMNSLKPDDTAVYYCNARIQIRADRDYSDYWGQGTQVTVSS
In the case of B4, the binding result with human PDL1-His is given as “no binding”.

The record behind these values is patent publication US20260297195 (published 2026).
